Measurements taken from PMC2953525, “Subtle Alterations in PCNA-Partner Interactions Severely Impair DNA Replication and Repair” (PLoS Biology, 2010).
Positions count from the first letter of the chain named.

Assays:
[1] = tested on: Msh6; experiment: Yeast two hybrid (Y2H) analysis of PCNA-partner interaction; format: binding; conditions: YRG2 strain, growth on selective agar plates lacking histidine; growth similar to WT PCNA denoted as 1
Experimental: (§1) For the Y2H assay, we used the YRG2 host strain, shown to be highly efficient in coupling the strength of protein-protein interactions with growth on media lacking histidine. Selected PCNA mutants were characterized for their ability to bind each of 12 main PCNA partners to obtain specificity profiles (Table 1, Table S1, and Figures S4–S5). […] However, in some cases a strong trade-off between the bindings of different partners was observed.
(§2) Y2H analysis was performed using the Yeast Two Hybrid Phagemid vector kit (Stratagene), following the manufacturer's instructions. The pAD-PCNA-WT/mutant plasmids were used as bait while plasmids encoding 12 different PCNA partners (Table 1 and Table S1) were used as prey. The YRG2 host strain (Stratagene) was cotransformed with pAD-PCNA WT/mutant and pBD-partner plasmids in all possible combinations using the LiAC method. Single transformants were grown in liquid SC-Leu-Trp to O.D600 10, washed twice with DDW, and diluted to an initial OD600 of 0.3. A series of 10-fold serial dilutions was then spotted onto selective SC-Leu-Trp-His plates and incubated at 30°C for 3 d. For quantitative Y2H, the generation time of the indicated mutants and their respective partners were calculated from their growth curves in liquid SC-Leu-Trp-His media. Cells were grown overnight in SC-Leu-Trp, washed twice with ddH2O, and diluted by a factor of 1∶50 into 10 ml of pre-warmed SC-Leu-Trp-His. O.D600 measurements of the cultures were taken at the indicated time; the generation time (τ) was calculated from the growth curves according to the equation ODt = OD0×2^t/τ. The generation time calculated for each culture is an average of at least 3 independent experiments.

[2] = tested on: Pol32; experiment: as above; format: binding; conditions: YRG2 strain, growth on selective agar plates lacking histidine; growth similar to WT PCNA denoted as 1
Experimental: as §1, §2

[3] = tested on: Rad27; experiment: as above; format: binding; conditions: footnote c: generation time in liquid selective media lacking histidine relative to cells expressing WT PCNA; average of at least 3 independent experiments
Experimental: as §1, §2

[4] = tested on: Rad30; experiment: as above; format: binding; conditions: YRG2 strain, growth on selective agar plates lacking histidine; growth similar to WT PCNA denoted as 1
Experimental: as §1, §2

[5] = tested on: Ung1; experiment: as above; format: binding; conditions: YRG2 strain, growth on selective agar plates lacking histidine; growth similar to WT PCNA denoted as 1
Experimental: as §1, §2

[6] = tested on: Apn2; experiment: as above; format: binding; parameters: key: ++: major increase in growth; +: moderate increase in growth; similar growth as the WT PCNA-expressing cells; -: minor decrease in growth; --: moderate decrease in growth; ---: major decrease in growth; conditions: spotting onto selective agar plates; PCNA fused to AD, partner to BD
Experimental: as §2
(§3) Table S1: Yeast two hybrid analysis of binding of selected PCNA mutants with seven additional partners not described in Table 1 of the main text. […]
(§4) pol30-Rad30E2 WT WT WT WT WT WT - pol30-Rad30E9 WT WT WT WT WT WT WT pol30-Rad27E6 WT WT WT WT + WT WT pol30-Rad27E31 WT WT WT WT + WT WT pol30-Rad27L1 WT -- WT WT -- WT WT pol30-Rad27L2 WT -- WT WT -- WT WT pol30-Pol32E5 WT WT WT WT WT WT WT pol30-Pol32E9 - WT WT WT WT WT WT pol30-Msh6E2 WT WT + WT WT WT WT pol30-Msh6E6 WT WT ++ WT WT WT WT pol30-Ung1E3 WT - WT WT WT WT WT pol30-79 --- --- --- - --- --- --- a PCNA mutants with enhanced affinities for the different target partners (see Table 1, text). b PCNA mutants were fused to the activating domain (AD), while the different partners were fused to the DNA-binding domain (BD). The growth of the resulting Y2H strains was compared to the growth of the WT PCNA-expressing strain following spotting onto selective agar plates (see Material and Methods). Growth rates on the agar plates were scored and tabulated as follows: ++ major increase in growth; + moderate increase in growth; WT-similar growth as the WT PCNA-expressing cells; - minor decrease in growth; -- moderate decrease in growth; --- major decrease in growth. ND-Not determined.

[7] = tested on: Cac1; experiment: as above; format: binding; parameters: key: ++: major increase in growth; +: moderate increase in growth; similar growth as the WT PCNA-expressing cells; -: minor decrease in growth; --: moderate decrease in growth; ---: major decrease in growth; conditions: spotting onto selective agar plates; PCNA fused to AD, partner to BD
Experimental: as §2, §3, §4

[8] = tested on: Cdc9; experiment: as above; format: binding; parameters: key: ++: major increase in growth; +: moderate increase in growth; similar growth as the WT PCNA-expressing cells; -: minor decrease in growth; --: moderate decrease in growth; ---: major decrease in growth; conditions: spotting onto selective agar plates; PCNA fused to AD, partner to BD
Experimental: as §2, §3, §4

[9] = tested on: Eco1; experiment: as above; format: binding; parameters: key: ++: major increase in growth; +: moderate increase in growth; similar growth as the WT PCNA-expressing cells; -: minor decrease in growth; --: moderate decrease in growth; ---: major decrease in growth; conditions: spotting onto selective agar plates; PCNA fused to AD, partner to BD
Experimental: as §2, §3, §4

[10] = tested on: Msh3; experiment: as above; format: binding; parameters: key: ++: major increase in growth; +: moderate increase in growth; similar growth as the WT PCNA-expressing cells; -: minor decrease in growth; --: moderate decrease in growth; ---: major decrease in growth; conditions: spotting onto selective agar plates; PCNA fused to AD, partner to BD
Experimental: as §2, §3, §4

[11] = tested on: Rfc1; experiment: as above; format: binding; parameters: key: ++: major increase in growth; +: moderate increase in growth; similar growth as the WT PCNA-expressing cells; -: minor decrease in growth; --: moderate decrease in growth; ---: major decrease in growth; conditions: spotting onto selective agar plates; PCNA fused to AD, partner to BD
Experimental: as §2, §3, §4

[12] = tested on: Rrm3; experiment: as above; format: binding; parameters: key: ++: major increase in growth; +: moderate increase in growth; similar growth as the WT PCNA-expressing cells; -: minor decrease in growth; --: moderate decrease in growth; ---: major decrease in growth; conditions: spotting onto selective agar plates; PCNA fused to AD, partner to BD
Experimental: as §2, §3, §4

[13] = tested on: yeast strains; experiment: Viability of haploid strains with mutant as sole source of PCNA (plasmid shuffling, 5FOA); format: cell-based; conditions: for viability of strain containing the mutant as the sole source of PCNA: plasmid shuffling, selection on 5FOA; for effect of rad27 deletion on lethality of the mutant strain: rad27-deleted background, 5-FOA
Description: To study the in vivo ability of PCNA mutants to promote DNA replication and repair in yeast, we adopted a plasmid shuffling method to create haploid yeast strains carrying each mutant as the sole source of PCNA (see Materials and Methods). This approach allowed us to identify PCNA mutants leading to cell death, indicating their inability to support essential DNA replication processes (Figure 5A). […] To verify that the replication defects in the mutant strains (Figure 5) are not due to reduced expression levels of the PCNA proteins, we confirmed the expression level of PCNA using western blot analysis and observed similar expression levels of all PCNA mutants, relative to WT PCNA (Figure S7).
Figure 5 In vivo phenotypic analysis of PCNA mutants. (A) Non-viable strains containing PCNA mutants with increased binding affinity for Rad27 as the sole version of PCNA. Yeast strains containing WT PCNA expressed from a URA3 plasmid and mutant PCNA genes expressed from a LEU2 plasmid are viable (middle). Upon selection for loss of WT PCNA using 5-floororotic acid (5FOA), PCNA mutant strains are non-viable (right). (B) MMS (middle) and HU (right) sensitivity of strains containing PCNA mutants with increased binding affinity for Rad27, Pol32, Rad30, Msh6, and Ung1 and strains containing WT PCNA in which the same partners were deleted. For binding characterization and sequences of the mutants, see Table 1.
Novel haploids containing PCNA mutants were generated using the plasmid shuffling method. Briefly, a pol30::KanMX magic marker heterozygote diploid strain BY4743 (Open Biosystem) was transformed with plasmid pRS316-POL30. Following dissection of the diploid, a haploid containing the CAN+ gene and plasmid pRS316-POL30 as a sole source of PCNA was generated. This host strain was transformed with selected pRS315-pol30 mutants, plated on SC-Ura-Leu plates, followed by replica plating to SC-Leu+5FOA plates. Haploids, containing PCNA mutants as a sole source, were further verified by plating on either SC-Leu or SC-Ura plates. For testing selected PCNA mutants, a haploid containing rad27::HYG, rad30::HYG, pol32::HYG, msh6::HYG, or ung1::HYG were generated using plasmid pAG32 by conventional genetic approaches. Growth of the PCNA mutant strains in the presence of 120 mM HU (Toronto Research Chemicals) or 0.02% MMS (Sigma) was performed as described. To examine the effects of partner overexpression on pol30 mutant strains, these strains were transformed with various plasmids containing GST-tagged PCNA partner encoding genes under the control of a GAL1/10 inducible promoter, as previously described. Overnight cultures were plated in serial dilutions on SC-Ura containing either glucose or galactose with or without DNA-damaging agents, as described above.

B1: pol30-Rad27E31: PCNA mutant evolved for Rad27, IDCL sequence DGDYDVLKIREL (protein)
chain: MLEAKFEEASLFKRIIDGFKDCVQLVNFQCKEDGIIAQAVDDSRVLLVSLEIGVEAFQEYRCDHPVTLGMDLTSLSKILRCGNNTDTLTLIADNTPDSIILLFEDTKKDRIAEYSLKLMDGDYDVLKIRELQYDSTLSLPSSEFSKIVRDLSQLSDSINIMITKETIKFVADGDIGSGSVIIKPFVDMEHPETSIKLEMDQPVDLTFGAKYLLDIIKGSSLSDRVGIRLSSEAPALFQFDLKSGFLQFFLAPKFNDEE
modifications: left off: Gal4 activation domain, end not stated, kept
- Binding of PCNA Mutants to Target Partners: Msh6 (Y2H) [1]: 1
- Binding of PCNA Mutants to Target Partners: Pol32 (Y2H) [2]: 1
- Binding of PCNA Mutants to Target Partners: Rad27, fold increase or decrease (quantitative Y2H) [3]: 1.5 ^c fold
- Binding of PCNA Mutants to Target Partners: Rad30 (Y2H) [4]: 1
- Binding of PCNA Mutants to Target Partners: Ung1 (Y2H) [5]: 1
- Y2H growth relative to WT PCNA-expressing strain: Apn2 [6]: WT
- Y2H growth relative to WT PCNA-expressing strain: Cac1 [7]: +
- Y2H growth relative to WT PCNA-expressing strain: Cdc9 [8]: WT
- Y2H growth relative to WT PCNA-expressing strain: Eco1 [9]: WT
- Y2H growth relative to WT PCNA-expressing strain: Msh3 [10]: WT
- Y2H growth relative to WT PCNA-expressing strain: Rfc1 [11]: WT
- Y2H growth relative to WT PCNA-expressing strain: Rrm3 [12]: WT

B2: pol30-Rad27L1: PCNA mutant evolved for Rad27, two-residue deletion, IDCL sequence D––VDILKIGEL (protein)
chain: MLEAKFEEASLFKRIIDGFKDCVQLVNFQCKEDGIIAQAVDDSRVLLVSLEIGVEAFQEYRCDHPVTLGMDLTSLSKILRCGNNTDTLTLIADNTPDSIILLFEDTKKDRIAEYSLKLMDVDILKIGELQYDSTLSLPSSEFSKIVRDLSQLSDSINIMITKETIKFVADGDIGSGSVIIKPFVDMEHPETSIKLEMDQPVDLTFGAKYLLDIIKGSSLSDRVGIRLSSEAPALFQFDLKSGFLQFFLAPKFNDEE
modifications: left off: Gal4 activation domain, end not stated, kept
- Binding of PCNA Mutants to Target Partners: Msh6 (Y2H) [1]: 1
- Binding of PCNA Mutants to Target Partners: Pol32 (Y2H) [2]: 1
- Binding of PCNA Mutants to Target Partners: Rad27, fold increase or decrease (quantitative Y2H) [3]: 1.7 ^c fold
- Binding of PCNA Mutants to Target Partners: Ung1 (Y2H) [5]: 1
- Y2H growth relative to WT PCNA-expressing strain: Apn2 [6]: WT
- Y2H growth relative to WT PCNA-expressing strain: Cac1 [7]: --
- Y2H growth relative to WT PCNA-expressing strain: Cdc9 [8]: WT
- Y2H growth relative to WT PCNA-expressing strain: Eco1 [9]: --
- Y2H growth relative to WT PCNA-expressing strain: Msh3 [10]: WT
- Y2H growth relative to WT PCNA-expressing strain: Rfc1 [11]: WT
- Y2H growth relative to WT PCNA-expressing strain: Rrm3 [12]: WT
- viability of strain containing the mutant as the sole source of PCNA [13]: lethality
- effect of rad27 deletion on lethality of the mutant strain [13]: suppressed the lethality

B3: pol30-Rad27L2: PCNA mutant evolved for Rad27, two-residue deletion, IDCL sequence D––VDTLKITEL (protein)
chain: B2 chain with I123T, G127T
modifications: left off: Gal4 activation domain, end not stated, kept
- Binding of PCNA Mutants to Target Partners: Msh6 (Y2H) [1]: 1
- Binding of PCNA Mutants to Target Partners: Pol32 (Y2H) [2]: 1
- Binding of PCNA Mutants to Target Partners: Rad27, fold increase or decrease (quantitative Y2H) [3]: 1.5 ^c fold
- Binding of PCNA Mutants to Target Partners: Ung1 (Y2H) [5]: 1
- Y2H growth relative to WT PCNA-expressing strain: Apn2 [6]: WT
- Y2H growth relative to WT PCNA-expressing strain: Cac1 [7]: --
- Y2H growth relative to WT PCNA-expressing strain: Cdc9 [8]: WT
- Y2H growth relative to WT PCNA-expressing strain: Eco1 [9]: --
- Y2H growth relative to WT PCNA-expressing strain: Msh3 [10]: WT
- Y2H growth relative to WT PCNA-expressing strain: Rfc1 [11]: WT
- Y2H growth relative to WT PCNA-expressing strain: Rrm3 [12]: WT
- viability of strain containing the mutant as the sole source of PCNA [13]: lethality
- effect of rad27 deletion on lethality of the mutant strain [13]: suppressed the lethality
